B1: AcRedAm (Aspergillus calidoustus) (protein)
chain: MSTITLFGLGAMGKALAAKYIEKGYTTTIWNRTPSKAAPLVEKGAKLANTVGEGLASADLIILCLLDNASVRQTLDQATAALNGKTVINLTNGTPSQARETSEWVISHGAQYIHGGIMAVPDMIGSPHAVLLYSGESAETFSRVEAHLSHLGTSKFLGTDPGSASLHDLALLSGMYGLFSGFFHATALVKSQPGTTATGFVQLLTPWLSAMTHYLGALAKQIDEGDYATQGSNMAMQVTGVQNIVRASEEAGVTADLIMPILGRMTRAAEAGYADVDVSAVIEFMKE
notes: dimer in homology model

One data set concerns T1, O=C1CCc2ccccc21.
T1 construct: dimer in homology model
Briefly: purified protein. It counts as biochemical, Aspergillus calidoustus. Particulars: 20 mM propargylamine, 0.2 mM NADPH, 1% DMSO, 100 mM Tris-HCl pH 9.0.
In the case of “AcRedAm (Aspergillus calidoustus; Q237G)”, the Michaelis constant (Km) came to 4 ± 1 µM, the turnover number (kcat) was 0.002 ± 0.001 s⁻¹ and the kcat/Km was 500 ± 30 M⁻¹ s⁻¹.

Take “AcRedAm (Aspergillus calidoustus; W207C)”: the Km turned out to be 18 ± 2 µM, the catalytic constant (kcat) was 0.022 ± 0.001 s⁻¹ and the kcat/Km came out at 1220 ± 44 M⁻¹ s⁻¹.

As for “AcRedAm (Aspergillus calidoustus; W207S/Y214C)”, the Michaelis-Menten constant (Km) worked out at 21 ± 4 µM, the kcat was determined as 0.026 ± 0.002 s⁻¹ and the kcat/Km came to 1240 ± 26 M⁻¹ s⁻¹.

As to “AcRedAm (Aspergillus calidoustus; Y214M)”, the Km was 12 ± 4 µM, the turnover number (kcat) turned out to be 0.014 ± 0.002 s⁻¹ and the kcat/Km stood at 1170 ± 21 M⁻¹ s⁻¹.

For “AcRedAm (Aspergillus calidoustus; Q237A)”, the Michaelis constant (Km) amounted to 9 ± 1 µM, the kcat is 0.007 ± 0.001 s⁻¹ and the kcat/Km came to 778 ± 21 M⁻¹ s⁻¹.

Substrate in another data set: O=C1CCc2ccccc21
The data set is described as follows: purified protein. As to conditions: 20 mM propargylamine, 0.2 mM NADPH, 1% DMSO, 100 mM Tris-HCl pH 9.0. It counts as biochemical, Aspergillus calidoustus.
For the molecule B1, the Km was 16 ± 4 µM, the kcat is 0.017 ± 0.001 s⁻¹ and the kcat/Km was 1060 ± 41 M⁻¹ s⁻¹.

Source of the values: publication PMC8727753, “Engineering of Reductive Aminases for Asymmetric Synthesis of Enantiopure Rasagiline” (Frontiers in Bioengineering and Biotechnology, 2021).
